Results taken from publication PMC9482650, “Quantitative fragmentomics allow affinity mapping of interactomes” (Nature Communications, 2022).

T1: HTRA3, P83110
T1 sequence (P83110 354-453, limits assumed, looked up): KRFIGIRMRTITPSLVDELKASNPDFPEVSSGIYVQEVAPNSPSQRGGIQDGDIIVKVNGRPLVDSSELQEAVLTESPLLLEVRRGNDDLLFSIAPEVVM

T2: TJP3_3, O95049
T2 sequence (O95049 375-456, limits assumed, looked up): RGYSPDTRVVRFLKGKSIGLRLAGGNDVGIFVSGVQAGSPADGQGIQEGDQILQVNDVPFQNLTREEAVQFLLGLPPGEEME

T3: APBA3_1, O96018
T3 sequence (O96018 389-490, limits assumed, looked up): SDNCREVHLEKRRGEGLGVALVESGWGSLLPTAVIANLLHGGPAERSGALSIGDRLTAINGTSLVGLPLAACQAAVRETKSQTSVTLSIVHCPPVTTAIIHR

T4: MPP7, Q5T2T1
T4 sequence (Q5T2T1 134-230, limits assumed, looked up): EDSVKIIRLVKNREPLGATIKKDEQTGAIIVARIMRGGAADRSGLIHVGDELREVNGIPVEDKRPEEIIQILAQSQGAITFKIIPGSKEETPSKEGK

T5: CARD11, Q9BXL7
T5 sequence (Q9BXL7 662-765, limits assumed, looked up): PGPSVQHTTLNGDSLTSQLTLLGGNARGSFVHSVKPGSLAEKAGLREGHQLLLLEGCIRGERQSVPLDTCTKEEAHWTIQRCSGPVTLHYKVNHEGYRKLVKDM

T6: LRRC7, Q96NW7
T6 sequence (Q96NW7 1440-1537, limits assumed, looked up): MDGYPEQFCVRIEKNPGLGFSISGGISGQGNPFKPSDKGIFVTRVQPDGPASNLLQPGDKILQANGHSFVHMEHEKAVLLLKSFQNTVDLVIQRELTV

T7: DVL3, Q92997
T7 sequence (Q92997 244-331, limits assumed, looked up): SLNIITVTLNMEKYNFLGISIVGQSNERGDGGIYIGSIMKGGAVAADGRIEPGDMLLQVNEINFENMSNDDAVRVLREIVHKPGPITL

T8: GRIP1_5, Q9Y3R0
T8 sequence (Q9Y3R0 568-668, limits assumed, looked up): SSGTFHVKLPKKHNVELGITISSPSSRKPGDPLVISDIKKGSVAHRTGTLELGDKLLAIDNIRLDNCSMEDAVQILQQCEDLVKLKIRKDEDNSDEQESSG

T9: SNTB1, Q13884
T9 sequence (Q13884 107-205, limits assumed, looked up): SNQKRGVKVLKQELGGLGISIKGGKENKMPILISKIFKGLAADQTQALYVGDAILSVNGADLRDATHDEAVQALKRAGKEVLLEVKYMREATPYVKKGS

T10: LNX2_3, Q8N448
T10 sequence (Q8N448 463-564, limits assumed, looked up): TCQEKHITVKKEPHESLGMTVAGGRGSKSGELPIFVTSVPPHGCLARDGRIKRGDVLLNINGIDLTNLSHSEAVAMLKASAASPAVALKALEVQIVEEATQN


Experiments:
Assay in all cases: holdup assay
Parameters in all cases: key: below the threshold = too weak to quantify, mostly under pKd 3.1 to 4
Details in all cases: plain residues with an end cap or a label only (N-terminal biotin on a linker: ahx)
HTRA3, P83110 = target: T1, HTRA3, P83110
HTRA2, O43464 = target: HTRA2, O43464
HTRA2, O43464, sequence (O43464 355-458): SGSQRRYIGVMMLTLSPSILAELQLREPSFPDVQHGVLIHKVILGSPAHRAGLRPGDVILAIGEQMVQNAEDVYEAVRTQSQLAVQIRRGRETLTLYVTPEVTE

TJP3_3, O95049 = target: T2, TJP3_3, O95049
GRIP2_4, Q9C0E4 = target: GRIP2_4, Q9C0E4
GRIP2_4, Q9C0E4, sequence (Q9C0E4 446-548): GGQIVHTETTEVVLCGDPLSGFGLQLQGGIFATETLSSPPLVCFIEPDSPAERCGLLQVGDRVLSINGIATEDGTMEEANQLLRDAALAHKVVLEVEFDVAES

APBA3_1, O96018 = target: T3, APBA3_1, O96018
DLG2_2, Q15700 = target: DLG2_2, Q15700
DLG2_2, Q15700, sequence (Q15700 189-283): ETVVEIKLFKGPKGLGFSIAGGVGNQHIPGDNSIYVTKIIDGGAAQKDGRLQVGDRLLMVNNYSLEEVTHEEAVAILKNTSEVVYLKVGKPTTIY

MPP7, Q5T2T1 = target: T4, MPP7, Q5T2T1
LNX1_1, Q8TBB1 = target: LNX1_1, Q8TBB1
LNX1_1, Q8TBB1, sequence (Q8TBB1 261-371): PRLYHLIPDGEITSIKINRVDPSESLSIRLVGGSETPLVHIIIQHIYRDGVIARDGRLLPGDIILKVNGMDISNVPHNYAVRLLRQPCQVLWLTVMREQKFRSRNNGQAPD

LNX1_2, Q8TBB1 = target: LNX1_2, Q8TBB1
LNX1_2, Q8TBB1, sequence (Q8TBB1 371-470): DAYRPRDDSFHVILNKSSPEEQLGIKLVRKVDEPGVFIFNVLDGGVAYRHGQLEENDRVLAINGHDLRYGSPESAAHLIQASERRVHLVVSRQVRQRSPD

GRIP2_6, Q9C0E4 = target: GRIP2_6, Q9C0E4
GRIP2_6, Q9C0E4, sequence (Q9C0E4 648-740): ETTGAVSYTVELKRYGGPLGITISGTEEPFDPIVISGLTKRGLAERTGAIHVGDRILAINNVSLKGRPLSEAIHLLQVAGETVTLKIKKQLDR

NHERF4_1, Q86UT5-2 = target: NHERF4_1, Q86UT5-2
NHERF4_1, Q86UT5-2, sequence (Q86UT5 other isoform, or with tags, fused parts or gaps): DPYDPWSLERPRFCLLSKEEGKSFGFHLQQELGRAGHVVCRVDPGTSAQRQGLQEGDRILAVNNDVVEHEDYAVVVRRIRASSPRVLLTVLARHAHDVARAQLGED

GOPC, Q9HD26 = target: GOPC, Q9HD26
CARD11, Q9BXL7 = target: T5, CARD11, Q9BXL7
GORASP2, Q9H8Y8 = target: GORASP2, Q9H8Y8
LRRC7, Q96NW7 = target: T6, LRRC7, Q96NW7
DVL3, Q92997 = target: T7, DVL3, Q92997
PDZRN4_1, Q6ZMN7 = target: PDZRN4_1, Q6ZMN7
PDZRN4_1, Q6ZMN7, sequence (Q6ZMN7 213-318): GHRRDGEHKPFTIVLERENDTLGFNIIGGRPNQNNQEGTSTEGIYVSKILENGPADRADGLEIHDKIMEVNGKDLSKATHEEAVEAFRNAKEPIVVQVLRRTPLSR

DLG4_3, P78352 = target: DLG4_3, P78352
DLG4_3, P78352, sequence (P78352 306-403): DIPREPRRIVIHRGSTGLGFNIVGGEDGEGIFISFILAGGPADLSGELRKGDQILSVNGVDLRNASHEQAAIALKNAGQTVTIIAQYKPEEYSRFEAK

FRMPD3, Q5JV73 = target: FRMPD3, Q5JV73
FRMPD3, Q5JV73, sequence (Q5JV73 12-100): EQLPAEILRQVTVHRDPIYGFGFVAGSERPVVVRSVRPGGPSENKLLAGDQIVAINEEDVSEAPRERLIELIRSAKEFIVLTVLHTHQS

GRIP1_5, Q9Y3R0 = target: T8, GRIP1_5, Q9Y3R0
HTRA1, Q92743 = target: HTRA1, Q92743
HTRA1, Q92743, sequence (Q92743 360-477): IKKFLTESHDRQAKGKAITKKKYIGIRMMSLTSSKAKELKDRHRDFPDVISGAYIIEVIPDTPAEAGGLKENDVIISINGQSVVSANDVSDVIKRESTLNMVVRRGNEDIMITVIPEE

Inadl_6, Q8NI35 = target: Inadl_6, Q8NI35
Inadl_6, Q8NI35, sequence (Q8NI35 1058-1167): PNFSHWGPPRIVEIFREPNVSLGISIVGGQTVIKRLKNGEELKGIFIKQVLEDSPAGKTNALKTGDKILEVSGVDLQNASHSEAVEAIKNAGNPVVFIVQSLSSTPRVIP

MAGI3_2, Q5TCQ9 = target: MAGI3_2, Q5TCQ9
MAGI3_2, Q5TCQ9, sequence (Q5TCQ9 398-503): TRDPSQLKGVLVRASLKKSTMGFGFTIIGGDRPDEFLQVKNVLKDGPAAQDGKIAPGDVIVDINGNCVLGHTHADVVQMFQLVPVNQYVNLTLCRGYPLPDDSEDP

SNTB1, Q13884 = target: T9, SNTB1, Q13884
LAP2, Q96RT1 = target: LAP2, Q96RT1
LAP2, Q96RT1, sequence (Q96RT1 other isoform, or with tags, fused parts or gaps): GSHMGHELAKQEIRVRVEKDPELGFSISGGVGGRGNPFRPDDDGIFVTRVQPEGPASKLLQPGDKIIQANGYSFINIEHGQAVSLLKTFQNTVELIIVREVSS

TJP1_3, Q07157 = target: TJP1_3, Q07157
TJP1_3, Q07157, sequence (Q07157 416-512): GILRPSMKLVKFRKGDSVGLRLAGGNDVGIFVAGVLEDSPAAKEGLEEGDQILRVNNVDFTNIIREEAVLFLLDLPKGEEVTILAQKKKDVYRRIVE

LNX2_3, Q8N448 = target: T10, LNX2_3, Q8N448

Binder | pKd (HTRA3, P83110) | pKd (HTRA2, O43464) | pKd (TJP3_3, O95049) | pKd (GRIP2_4, Q9C0E4) | pKd (APBA3_1, O96018) | pKd (DLG2_2, Q15700) | pKd (MPP7, Q5T2T1) | pKd (LNX1_1, Q8TBB1) | pKd (LNX1_2, Q8TBB1) | pKd (GRIP2_6, Q9C0E4) | pKd (NHERF4_1, Q86UT5-2) | pKd (GOPC, Q9HD26) | pKd (CARD11, Q9BXL7) | pKd (GORASP2, Q9H8Y8) | pKd (LRRC7, Q96NW7) | pKd (DVL3, Q92997) | pKd (PDZRN4_1, Q6ZMN7) | pKd (DLG4_3, P78352) | pKd (FRMPD3, Q5JV73) | pKd (GRIP1_5, Q9Y3R0) | further results
RAVEEEESRF [PSCDBP, O60759] | below the threshold | below the threshold | below the threshold | below the threshold | below the threshold | below the threshold | below the threshold | below the threshold | below the threshold | below the threshold | below the threshold | below the threshold | below the threshold | below the threshold | below the threshold | below the threshold | below the threshold | below the threshold | below the threshold | below the threshold | pKd (HTRA1, Q92743): below the threshold; pKd (Inadl_6, Q8NI35): below the threshold; pKd (MAGI3_2, Q5TCQ9): below the threshold; pKd (SNTB1, Q13884): below the threshold; pKd (LAP2, Q96RT1): below the threshold; pKd (TJP1_3, Q07157): below the threshold; pKd (LNX2_3, Q8N448): below the threshold
RRRKRKRTYL [HPV49-L2, P36762] | below the threshold | 3.49 | below the threshold | 4.37 | below the threshold | 4.58 | below the threshold | 3.63 | below the threshold | below the threshold | 4.69 | 4.3 | below the threshold | 4.81 | below the threshold | 3.57 | 3.55 | 4.26 | 3.5 | below the threshold | pKd (HTRA1, Q92743): 3.99; pKd (Inadl_6, Q8NI35): below the threshold; pKd (MAGI3_2, Q5TCQ9): 5.4; pKd (SNTB1, Q13884): 3.58; pKd (LAP2, Q96RT1): below the threshold; pKd (TJP1_3, Q07157): below the threshold; pKd (LNX2_3, Q8N448): below the threshold
